Changes are numbered by the printed parent chain. In names and notes the source's numbering stands.
B1: aglycosylated PD-1 variant Q10, displayed on E. coli spheroplasts (receptor)
chain: LDSPDRPWNPPTISPALLVVTEGDQATFTCSLSQTSESFVLNWYRISPSQQMDKLAAFPEDRSQPGQDTRFRVTQLPNGRDFHMSVDRARRQDSGSYLCVAISLAPKVQIKESLRAELRVTERRAEVPTAHPSPSPRPAGQFQ
notes: Single clone of the final sorting round; not shown: NlpA leader/anchor of the pMopac12-NlpA-FLAG vector; FLAG tag
B2: aglycosylated PD-1 variant Q12, displayed on E. coli spheroplasts (receptor)
chain: B1 chain with W8L, N9D, L32F, E37K, M52T, D87V, S96T, G140C
notes: as for B1
B3: aglycosylated PD-1 variant Q18, displayed on E. coli spheroplasts (receptor)
chain: B1 chain with S31G, S33P, S47G, D87V, S96T, P128R, P138S
notes: as for B1
B4: aglycosylated PD-1 variant Q33, displayed on E. coli spheroplasts (receptor)
chain: B1 chain with L32F, Q34R, M52T, D87V, R88G, R90Q, S96T
notes: as for B1
B5: aglycosylated PD-1 variant Q-IITV (F13I, N25Q, N34Q, M46I, N50Q, C69T, N92Q, G100V), displayed on E. coli spheroplasts (receptor)
chain: B1 chain with L32F, M52T, D87V, S96T, V108A
notes: pMopac12-N1pA-PD1_Q-IITV-FLAG; not shown: NlpA leader/anchor of the pMopac12-NlpA-FLAG vector; FLAG tag
B6: PD-1 variant N-IITV (F13I, M46I, C69T, G100V), displayed on E. coli spheroplasts (receptor)
chain: B1 chain with Q25N, L32F, Q34N, Q50N, M52T, D87V, Q92N, S96T, V108A
notes: also called N-IIITV; PD1_N-IITV; not shown: NlpA leader/anchor of the pMopac12-NlpA-FLAG vector; FLAG tag

What follows are binders tested against T1, dimeric human PD-L1 (PD-L1-Fc), Alexa-488 labelled (human, UniProt Q9NZQ7 19-238, Alexa-488 fluorescent label (sites not given)) (assay: flow cytometry of E. coli spheroplasts displaying single clones, fluorescent PD-L1 probe).
T1 construct: also called dimeric PD-L1-Fc-Alexa488 probe; dimeric PD-L1-Alexa488 probe; not shown: Fc domain of antibody IgG at the C-terminus; GS linker between PD-L1 and Fc
T1 sequence (Q9NZQ7 19-238): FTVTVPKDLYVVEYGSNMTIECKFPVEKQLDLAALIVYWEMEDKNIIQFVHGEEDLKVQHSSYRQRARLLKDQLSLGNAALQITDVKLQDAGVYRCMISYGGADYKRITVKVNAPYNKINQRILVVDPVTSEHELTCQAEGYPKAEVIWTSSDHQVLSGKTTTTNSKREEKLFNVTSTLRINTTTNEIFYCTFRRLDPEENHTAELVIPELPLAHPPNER
Procedure: Single colonies at the final round were incubated like Examples above to overexpress the protein and recover E. coli, respectively, and the peptidoglycan layer was removed and the spheroplasts were fluorescent-labeled, and then the binding ability to PD-L1 was analyzed by measuring the fluorescence signal values using FACSCalibur equipment.

Binding result, binds:
B1
B2
B3
B4

What follows are binders tested against T1, dimeric human PD-L1 (PD-L1-Fc), … (assay: flow cytometry of E. coli spheroplasts displaying the variant, 50 nM dimeric PD-L1-Fc-Alexa488).
Procedure: In order to remove the residual medium, the cells put in the e-tube were resuspended using 1 ml of 10 mM Tris-HCl (pH 8.0) and centrifuged at 13,500 rpm for 1 minute, and then washed twice. The cells were resuspended using 1 ml of an STE [0.5 M sucrose, 10 mM Tris-HCl, 10 mM EDTA (pH 8.0)] solution and rotated at 37° C. for 30 minutes to remove extracellular membrane and then centrifuged at 13,500 rpm for 1 minute to collect E. coli and then a supernatant was removed. The centrifuged E. coli was resuspended in 1 ml of Solution A [0.5 M sucrose, 20 mM MgCl₂, 10 mM MOPS pH 6.8] and then centrifuged at 13,500 rpm for 1 minute. The centrifuged E. coli was resuspended by adding 1 ml of a solution mixed with 1 ml of Solution A and 20 μl of a 50 mg/ml lysozyme solution, and then rotated at 37° C. for 15 minutes to remove a peptidoglycan layer. After centrifugation, the supematant was removed and the centrifuged E. coli was resuspended with 1 ml of PBS, taken to 300 μl, added with 700 μl of PBS and a 50 nM dimeric PD-L1-Fc-Alexa488 probe, and rotated at room temperature to label spheroplasts with a fluorescent probe. […] The centrifuged E. coli was resuspended in 1 ml of PBS, and then binding ability to PD-L1 was analyzed using Calibur (BD Biosciences) equipment, respectively.

Binding result, binds:
B5
B6

— patent US20230183318A1 (KOREA UNIVERSITY RESEARCH AND BUSINESS FOUNDATION, published 2023)
